# According to the Human Domainome abundance scans (Beltran et al. 2025):
# ± gives the uncertainty stated by the source.
# B1: Intersectin-2, residues 1129 to 1183; numbered along this chain, Q9NZM3 (parent)
# chain: VCQVIAMYDYAANNEDELSFSKGQLINVMNKDDPDWWQGEINGVTGLFPSNYVKM
# Variants of: B1
# Experiment: abundance fitness (aPCA) (normalised: wild type 0, dead -1); higher = more abundant; growth selection in yeast, the domain comes from the species named
# Details: Homo sapiens
row,Variant,abundance fitness
1,W36I,-0.159 ± 0.072
2,M29P,-0.496 ± 0.068
3,Q38N,-0.248 ± 0.073
4,K22R,-0.121 ± 0.028
5,E17C,-0.105 ± 0.042
6,D16F,-0.04 ± 0.033
7,S19G,-0.052 ± 0.045
8,E40R,-0.059 ± 0.04
9,M7R,-0.115 ± 0.039
10,L47G,-0.023 ± 0.037
11,L18R,-0.979 ± 0.072
12,T45Q,-0.024 ± 0.064
13,Q3M,-0.053 ± 0.044
14,N30I,-0.135 ± 0.057
15,D35M,-0.1 ± 0.043
16,Q24N,-0.05 ± 0.04
17,S50I,-0.084 ± 0.066
18,V44G,0.001 ± 0.039
19,V53R,-0.703 ± 0.05
20,W37L,-0.384 ± 0.03
21,G43M,-0.08 ± 0.041

row,Variant,abundance fitness
1,C2M,-0.13 ± 0.055
2,V53H,-0.477 ± 0.11
3,P34D,-0.01 ± 0.062
4,I41A,0.016 ± 0.028
5,L47W,-0.061 ± 0.033
6,Q38C,-0.027 ± 0.066
7,V44K,-0.056 ± 0.05
8,Q24G,-0.073 ± 0.037
9,K22C,-0.061 ± 0.052
10,S21F,-0.117 ± 0.058
11,G46H,-1.05 ± 0.1
12,N13A,-0.024 ± 0.041
13,N30F,-0.09 ± 0.047
14,Y10R,-0.063 ± 0.032
15,N14D,-0.089 ± 0.047
16,C2I,-0.116 ± 0.072
17,K54T,0.014 ± 0.047
18,V1Y,-0.453 ± 0.4
19,M29T,0.014 ± 0.045
20,N14P,-0.535 ± 0.062
21,N27G,-0.122 ± 0.036

row,Variant,abundance fitness
1,S50Q,-0.037 ± 0.039
2,A11M,-0.053 ± 0.057
3,T45V,-0.092 ± 0.049
4,V44A,-0.006 ± 0.043
5,L47Y,-0.04 ± 0.049
6,D33S,-0.037 ± 0.043
7,V53I,0.065 ± 0.058
8,T45C,-0.087 ± 0.056
9,D16S,-0.004 ± 0.033
10,N13K,0.042 ± 0.037
11,K22M,-0.118 ± 0.032
12,Q3P,-0.116 ± 0.032
13,V28F,-0.778 ± 0.07
14,E15S,-0.01 ± 0.039
15,Q38H,0.04 ± 0.056
16,D16Y,0.047 ± 0.066
17,L25I,0.006 ± 0.04
18,V1N,-0.247 ± 0.18
19,E40H,-0.08 ± 0.052
20,K54L,-0.177 ± 0.034
21,F20H,-0.988 ± 0.21

row,Variant,abundance fitness
1,L18T,-0.778 ± 0.053
2,K54D,-0.05 ± 0.032
3,K54C,-0.12 ± 0.053
4,S21W,-0.125 ± 0.053
5,I41Q,-0.085 ± 0.06
6,N51I,-0.077 ± 0.032
7,N51G,-0.021 ± 0.031
8,A12C,-0.115 ± 0.05
9,D32S,-0.063 ± 0.031
10,S50E,-0.266 ± 0.056
11,D32Y,-0.077 ± 0.052
12,N27P,-0.351 ± 0.06
13,Y10I,-0.494 ± 0.069
14,I41K,-0.094 ± 0.052
15,Y8D,-0.197 ± 0.065
16,Q3R,-0.13 ± 0.042
17,V28L,-0.048 ± 0.046
18,F20D,-1.03 ± 0.28
19,G43H,-0.025 ± 0.058
20,D32W,-0.086 ± 0.053
